Results from patent US20070027086A1 (ACTION PHARMA A S, published 2007).
Square brackets hold non-standard residues; d marks the D form. Ends that are not written are not given here.

B1: MS05 (Ser-Ser-Ile-Ile-Ser-His-Phe-Arg-Trp-Gly-Lys-Pro-Val-NH2) (peptide)
peptide: SSIISHFRWGKPV-NH2
modifications: also: trifluoroacetate salt
notes: Synthetic 13-residue peptide amide, obtained as the trifluoroacetate salt; also called MSO5; compound (3)
B2: MS09 (Ser-Ser-Ile-Ile-Ser-His-dPhe-Arg-Trp-Gly-Lys-Pro-Val-NH2) (peptide)
peptide: SSIISH[dF]RWGKPV-NH2
modifications: N-terminus assumed
SMILES: CC[C@H](C)[C@H](NC(=O)[C@H](CO)NC(=O)[C@@H](N)CO)C(=O)N[C@H](C(=O)N[C@@H](CO)C(=O)N[C@@H](Cc1c[nH]cn1)C(=O)N[C@H](Cc1ccccc1)C(=O)N[C@@H](CCCNC(=N)N)C(=O)N[C@@H](Cc1c[nH]c2ccccc12)C(=O)NCC(=O)N[C@@H](CCCCN)C(=O)N1CCC[C@H]1C(=O)N[C@H](C(N)=O)C(C)C)[C@@H](C)CC
notes: Synthetic 13-residue peptide amide; also called MSO9

How the values were obtained:
[1] = biological target: T1, human MC1-receptor (melanocortin 1 receptor) (human, UniProt Q01726 1-317); test: cell-based or functional assay
[2] = biological target: T2, human MC3-receptor (human, UniProt P41968 1-323); test: ratio of Ki values, competition with [^125I]NDP-MSH on COS-1 cells expressing human MC receptors
T2 construct: whole, on cells
Method: (§1) Expression of receptor clones. Human MC1- and MC5-receptor DNAs (Chhajlani and Wikberg 1992; Chhajlani et al., 1993), cloned into the expression vector pRc/CMV (InVitrogen Corp., USA), and human MC3- and human MC4-receptor DNAs (Gantz et al., 1993a & b), cloned into the expression vector pCMV/neo, were used. COS cells were grown and transfected with receptor clones as described (Schiöbth et al. 1995, 1996b). After transfection cells were cultivated for 48 h, detached from the Petri dishes, and used for radioligand binding as described (Schiöth et al. 1995, 1996b).
(§2) Binding studies. […] The competition data were analyzed by fitting it to the logistic function using non-linear regression analysis. The Kᵢ-values were then calculated from the thus obtained IC50-values by using the Cheng and Prusoff equation, essentially as described by Schiöth et al. 1995, 1996b.

[3] = biological target: T3, native mouse MC1-receptor (MSH-receptor of mouse B16 melanoma cells and of mouse RAW 264.7 cells) (mouse, UniProt Q01727 1-315); test: competition with 0.2 nM [^125I]NDP-MSH on mouse B16-F1 melanoma cells (native mouse MC1 receptor)
T3 construct: whole, on cells; also called B16 melanoma cell MSH-receptor
Method: Assays for MSH-receptor binding was done essentially as described (Xia et al., Cancer Letters, 1996, 98, 157-162), in principle according to earlier described methods (Eberle et al., J. Recept. Res. 1991, 11, 311-322). In brief, collected cells were washed with binding buffer (for composition of binding buffer see below) distributed into 96 well plates and sedimented onto the well bottoms by centrifugation. […] After incubation the plates were put on ice, centrifuged and the cells washed with 0.1 ml of ice-cold binding buffer, centrifuged and the binding buffer was sucked off. The finally sedimented and washed cells were then detached from the plates with 0.2 ml of 0.1 N NaOH. Radioactivity was counted by using a Wallac, Wizard automatic gamma counter. The competition data were analysed by law of massaction computer modelling essentially as described (Bergstrom & Wikberg, Acta Pharmacol. Toxicol. 1986, 59, 270-278).

[4] = biological target: T1, human MC1-receptor (melanocortin 1 …); test: competition with [^125I]NDP-MSH on COS cells expressing human MC1 receptor; Ki by Cheng-Prusoff
Method: as §1, §2

[5] = biological target: T2, human MC3-receptor; test: competition with [^125I]NDP-MSH on COS cells expressing human MC3 receptor; Ki by Cheng-Prusoff
Method: as §1, §2

[6] = biological target: T3, native mouse MC1-receptor (MSH-receptor …); test: competition with 0.1 nM [^125I]NDP-MSH on mouse RAW 264.7 macrophage cells (native mouse MC1 receptor)
Method: MSH-receptor binding was done essentially as described (Xia et al., Cancer Letters, 1996, 98, 157-162), in principle according to earlier described methods (Eberle et al., J. Recept Res. 1991, 11, 311-322). In brief, the collected cells were washed, distributed into 96 well plates and sedimented onto the well bottoms by centrifugation. […] Radioactivity was counted by using a Wallac, Wizard automatic gamma counter. The competition data were analysed by law of massaction computer modelling essentially as described (Bergstrom & Wikberg, Acta Pharmacol. Toxicol. 1986, 59, 270278).

[7] = biological target: T4, human MC4-receptor (human, UniProt P32245 1-332); test: competition with [^125I]NDP-MSH on COS cells expressing human MC4 receptor; Ki by Cheng-Prusoff
T4 construct: whole, on cells
Method: as §1, §2

[8] = biological target: T5, human MC5-receptor (human, UniProt P33032 1-325); test: competition with [^125I]NDP-MSH on COS cells expressing human MC5 receptor; Ki by Cheng-Prusoff
T5 construct: whole, on cells
Method: as §1, §2

T3 sequence (Q01727 whole entry): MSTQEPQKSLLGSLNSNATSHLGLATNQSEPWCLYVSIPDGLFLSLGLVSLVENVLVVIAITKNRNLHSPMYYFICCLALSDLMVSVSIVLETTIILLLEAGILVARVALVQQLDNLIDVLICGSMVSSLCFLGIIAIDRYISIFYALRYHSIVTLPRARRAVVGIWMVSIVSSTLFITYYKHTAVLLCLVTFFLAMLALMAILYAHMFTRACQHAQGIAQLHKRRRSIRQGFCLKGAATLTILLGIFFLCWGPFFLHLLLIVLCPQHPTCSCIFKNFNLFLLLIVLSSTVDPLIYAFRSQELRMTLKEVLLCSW
T1 sequence (Q01726 whole entry): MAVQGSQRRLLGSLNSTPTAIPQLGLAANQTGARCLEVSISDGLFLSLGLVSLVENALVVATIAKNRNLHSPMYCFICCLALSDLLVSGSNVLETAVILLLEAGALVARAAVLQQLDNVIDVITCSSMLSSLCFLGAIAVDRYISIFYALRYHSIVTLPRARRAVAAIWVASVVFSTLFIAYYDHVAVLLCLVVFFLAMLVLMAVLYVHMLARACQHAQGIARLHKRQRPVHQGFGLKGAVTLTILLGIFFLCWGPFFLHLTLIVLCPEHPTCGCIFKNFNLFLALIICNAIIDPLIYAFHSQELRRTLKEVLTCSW
T2 sequence (P41968 whole entry): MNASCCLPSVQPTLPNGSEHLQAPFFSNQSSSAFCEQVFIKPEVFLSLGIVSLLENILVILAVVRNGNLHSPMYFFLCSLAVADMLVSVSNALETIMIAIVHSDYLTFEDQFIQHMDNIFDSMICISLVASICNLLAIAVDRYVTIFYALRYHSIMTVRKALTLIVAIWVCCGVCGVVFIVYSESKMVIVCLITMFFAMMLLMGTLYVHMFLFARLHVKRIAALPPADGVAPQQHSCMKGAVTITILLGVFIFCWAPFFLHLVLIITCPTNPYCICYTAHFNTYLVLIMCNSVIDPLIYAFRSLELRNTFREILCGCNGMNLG
T5 sequence (P33032 whole entry): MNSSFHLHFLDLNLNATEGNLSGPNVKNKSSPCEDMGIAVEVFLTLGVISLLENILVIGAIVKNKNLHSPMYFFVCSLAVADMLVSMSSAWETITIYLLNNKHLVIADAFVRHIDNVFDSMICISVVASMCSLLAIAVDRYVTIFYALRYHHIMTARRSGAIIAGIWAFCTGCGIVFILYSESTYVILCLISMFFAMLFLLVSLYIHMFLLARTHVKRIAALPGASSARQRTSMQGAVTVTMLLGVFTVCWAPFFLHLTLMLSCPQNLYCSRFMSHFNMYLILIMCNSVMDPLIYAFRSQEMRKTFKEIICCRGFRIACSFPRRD
T4 sequence (P32245 whole entry): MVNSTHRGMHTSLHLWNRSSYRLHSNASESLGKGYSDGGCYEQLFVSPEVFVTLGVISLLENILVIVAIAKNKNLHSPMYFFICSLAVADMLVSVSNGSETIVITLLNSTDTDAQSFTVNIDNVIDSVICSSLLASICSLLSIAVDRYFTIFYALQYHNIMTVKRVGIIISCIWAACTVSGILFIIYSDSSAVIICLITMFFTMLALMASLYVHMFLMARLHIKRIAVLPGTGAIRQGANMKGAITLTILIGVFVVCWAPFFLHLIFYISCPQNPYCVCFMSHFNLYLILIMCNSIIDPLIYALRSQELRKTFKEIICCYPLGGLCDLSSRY

Row | Binder | % of 10 nM α-MSH (cAMP stimulation, 10 nM) [1] | Fold stimulation of cAMP (10 nM) [1] | Fold stimulation of cAMP (1 µM) [1] | fold lower affinity than for the MC1-receptor [2] | Ki [3] | Ki [4] | Ki [5] | Ki [6] | Ki [7] | Ki [8]
1 | B1 | 69% | 4.6 fold | 6.7 fold | 1800 fold | 1 nM | 0.76 nM | 1360 nM | 1.35 nM |  | 
2 | B2 | 89% | 5.5 fold | 7 fold |  | 0.06 nM | 0.2 nM | 7 nM |  | 40 nM | 120 nM
